B1: AGL24K (K-box region of AGL24 in prey vector pBI771) (other, not shown: small tags and cut ends)
chain: MLENCNLSRLSKEVEDKTKQLRKLRGEDLDGLNLEELQRLEKLLESGLSRVSEKKGECVMSQIFSLE
notes: also called AGL24 K-box; K-box prey construct
B2: SOC1K (K-box region of SOC1 in prey vector pBI771) (other, not shown: small tags and cut ends)
chain: MKYEAANMMKKIEQLEASKRKLLGEGIGTCSIEELQQIEQQLEKSVKCIRARKTQVFKEQIEQLKQKE
notes: also called SOC1 K-box; K-box prey construct
B3: AGL27 clone isolated in the AP1 two-hybrid screen (one clone) (other)
chain: MGRRKIEIKRIENKSSRQVTFSKRRNGLIDKARQLSILCESSVAVVVVSASGKLYDSSSGDDISKIIDRYEIQHADELRALDLEEKIQNYLPHKELLETVQSKLEEPNVDNVSVDSLISLEEQLETALSVSRARKAELMMEYIESLKEKEKLLREENQVLASQLSEKKGMSHR
notes: also called new MADS box gene designated AGL27; not shown: fusion partner encoded by prey vector pBI771
B4: SEP3K (K-box region of SEP3 in prey vector pBI771) (other)
chain: SQQEYLKLKERYDALQRTQRNLLGEDLGPLSTKELESLERQLDSSLKQIRALRTQFMLDQLNDLQSK
notes: also called SEP3 K-box; K-box prey construct; not shown: fusion partner encoded by prey vector pBI771
B5: shortest AGL24 clone from the CAL two-hybrid screen (other)
chain: EVEDKTKQLRKLRGEDLDGLNLEELQRLEKLLESGLSRVSEKKGECVMSQIFSLEKRGSELVDENKRLRDKLETLERAKLTTLKEALETESVTTNVSSYDSGTPLEDDSDTSLKLGLPSWE
notes: Lacks the MADS domain and I region; also called shortest clone of each class; shortest clones isolated in the screen; not shown: fusion partner encoded by prey vector pBI771
B6: SVPK (K-box region of SVP in prey vector pBI771) (other, not shown: small tags and cut ends)
chain: MSDHARMSKEIADKSHRLRQMRGEELQGLDIEELQQLEKALETGLTRVIETKSDKIMSEISELQKKG
notes: also called SVP K-box; K-box prey construct

Legend:
[1] = biological target: T1, bait vector (empty pBI-880, GAL4 (1-147) alone) (UniProt P04386 1-147); test: yeast two-hybrid, K-box prey with empty bait
T1 construct: range 1-147; Negative control: bait vector without insert; also called empty bait
From the text: Previous studies have shown that the MADS-domain and I regions may be important for homodimer formation by AG and by AP1 (Krizek and Meyerowitz, 1996; Mizukami et al., 1996; Riechmann et al., 1996) and that the I region and K-domain are needed for the formation of AP3/PI heterodimers (Krizek and Meyerowitz, Proc. Natl. Acad. Sci. USA 93, 4063-4070 (1996); Riechmann et al., Proc. Natl. Acad. Sci. USA 93, 4793-4798 (1996)). In addition, the K-domain of AG is sufficient to promote interactions with SEP1, SEP2, SEP3 and AGL6 in yeast (Fan et al., Plant J. 11, 999-1010 (1997)). Since many of the CAL- and AP1-interacting clones isolated as part of our study lacked the MADS-domain and I regions, we tested if the K-domain itself was sufficient to promote the observed interactions. First, we subcloned the K-box regions of SEP3, SOC1, SVP and AGL24 into the prey vector, and tested their ability to activate the reporter using either the empty bait or the cruciferin gene cloned into the bait plasmid. […] However, other protein domains appear to enhance these interactions since the level of reporter gene activation is higher when larger constructs are used.

[2] = biological target: T2, CAL bait (GAL4 (1-147) fused to the intact CAL coding region in pBI-880) (Arabidopsis thaliana); test: yeast two-hybrid with CAL bait
T2 construct: range 1-147; also called CAULIFLOWER; full-length CAL cDNA as bait
From the text: To confirm the specificity of these interactions, the longest clone of each class was transformed back into yeast with the AP1 bait, the bait vector, and an inert control bait, cruciferin. The strains containing the AP1 bait tested positive for both β-Gal activity and HIS prototrophy. The strains containing the bait vector or the cruciferin bait were negative in both assays. We then tested if the three new AP1-interacting clones could also interact with CAL, since they had not been isolated in the CAL library screen. However, AGL27, the RNA binding protein, and the novel protein were unable to interact with CAL in yeast.

[3] = biological target: T1, bait vector (empty pBI-880, GAL4 …); test: yeast two-hybrid retest, B-Gal and HIS prototrophy
From the text: To confirm the specificity of the observed interactions, the longest and shortest clone of each class was transformed back into a yeast strain that contained either the CAL bait, the bait vector, or an inert control bait, cruciferin. The strains containing the CAL bait tested positive for both B-Gal activity and HIS prototrophy. The strains containing the bait vector or the cruciferin bait were negative in both assays, as they were not able to grow on plates lacking histidine and the yeast colonies were completely white in the B-Gal assay.

Row | Binder | binding result [1] | further results
1 | B1 | no binding | 
2 | B2 | no binding | 
3 | B3 |  | binding result [2]: no binding
4 | B4 | no binding | 
5 | B5 |  | binding result [3]: no binding
6 | B6 | no binding | 
